One may read the stoichiometry N as a count of units in the complex or per binding partner.

We go through one substance from paper PMC5448004.

The assay addresses HepA (helicase protein A), archaeal HerA homolog of Thermus thermophilus, product of gene TTC0147 (Thermus thermophilus HB27). Description: negative-stain single-particle electron microscopy; purified HepA at 0.3 mg/mL in 20 mM Tris-HCl pH 7.5, pre-incubated with 1-10 mM ATP (30 min, 65 °C), 2% uranyl acetate; 2D classification and 3D reconstruction with C6 symmetry.

With “HepA (helicase protein A), archaeal HerA homolog of Thermus thermophilus, product of gene TTC0147 (enzyme)”, the stoichiometry N turned out to be 6.
